Consider 4 molecules from patent US20140120109A1 (Regeneron, published 2014).

Changes are numbered by the printed parent chain. Names may count otherwise.

Assay [1] deals with T1, human TL1A, soluble, CHO-expressed, residues 72-251 of SEQ ID NO:244 with N-terminal His6-tag (human, UniProt O95150 72-251).
T1 construct: also called hTL1A; hTL1A (CHO)
T1 sequence: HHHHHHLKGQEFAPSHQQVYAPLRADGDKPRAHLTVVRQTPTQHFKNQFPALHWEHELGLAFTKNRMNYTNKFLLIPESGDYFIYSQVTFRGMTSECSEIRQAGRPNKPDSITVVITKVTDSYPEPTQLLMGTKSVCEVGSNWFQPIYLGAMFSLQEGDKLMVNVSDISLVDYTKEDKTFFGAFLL
Kind of assay: SPR 25C, mAb captured; kd set at 1e-6 1/s. The method, then:
(§1) Measurements were conducted on a T100 BIACORE™ instrument. […] Kinetic association (kₐ) and dissociation (kd) rate constants were determined by fitting the data to a 1:1 binding model using BIAevaluation 4.1 curve fitting software (BIAcore Life Sciences). Molar concentrations of TL1A/Fhm used in the data fitting assumed a monomeric state for TL1A in solution. Binding dissociation equilibrium constants (KD) and dissociative half-lives (t_{1/2}) were calculated from the kinetic rate constants as: KD (M)=kd/kₐ; and t_{1/2} (min)=[In2/(60*kd)].

Assay [2] has as its target T2, cynomolgus monkey TL1A, soluble, CHO-expressed, residues 72-251 of SEQ ID NO:248 with N-terminal His6-tag (cynomolgus monkey (Macaca fascicularis), UniProt O95150 72-251 (human entry)).
T2 construct: also called MfTL1A; MfTL1A (CHO)
T2 chain: T1 sequence with F45L, I84V
Kind of assay: SPR 25C, mAb captured; SPR, 25 C.

Assay [3] concerns the target T1, human TL1A, soluble, CHO-expressed, …. Kind of assay: SPR 25C, mAb captured; kd set at 1e-6 1/s; 25 C; kd set at 1x10^-6 1/s. Here is the method: as §1
The target in assay [4] is T2, cynomolgus monkey TL1A, soluble, …. The assay can be described thus: SPR 37C, mAb captured; SPR, 37 C. The method, then:
as §1

Assay [5] addresses T3, rat TL1A, soluble, CHO-expressed, residues 76-252 of SEQ ID NO:258 with N-terminal His6-tag (rat, UniProt Q8K3Y7 76-252).
T3 construct: also called rTL1A; rTL1A (CHO)
T3 sequence: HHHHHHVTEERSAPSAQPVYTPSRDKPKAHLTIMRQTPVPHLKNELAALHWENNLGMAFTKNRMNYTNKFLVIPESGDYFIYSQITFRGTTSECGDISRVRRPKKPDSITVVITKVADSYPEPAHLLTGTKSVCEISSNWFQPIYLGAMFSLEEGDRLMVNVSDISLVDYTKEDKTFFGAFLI
Kind of assay: SPR 37C, mAb captured; kd set at 1e-6 1/s. The method, then:
as §1

For assay [6], the target named is T4, mouse TL1A, soluble, CHO-expressed, residues 76-252 of SEQ ID NO:250 with N-terminal His6-tag (mouse, UniProt Q5UBV8 76-252).
T4 construct: also called mTL1A; mTL1A (CHO)
T4 sequence: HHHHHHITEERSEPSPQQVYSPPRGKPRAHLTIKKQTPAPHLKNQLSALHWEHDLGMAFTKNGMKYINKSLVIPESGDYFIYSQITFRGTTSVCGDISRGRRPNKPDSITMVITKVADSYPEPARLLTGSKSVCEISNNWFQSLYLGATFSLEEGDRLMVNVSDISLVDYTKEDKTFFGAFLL
Kind of assay: SPR 25C, mAb captured; 25 C, CHO-expressed mTL1A, SPR. The method, then: as §1

The target in assay [7] is T5, Fhm, hTL1A(Q167R), soluble, CHO-expressed, residues 72-251 of SEQ ID NO:246 (human, UniProt O95150 72-251).
T5 construct: also called Fhm (CHO); FHM (CHO)
T5 chain: T1 sequence with Q102R
The assay can be described thus: ELISA, blocks FHM (10 pM) binding hDcR3-Fc; blocking of FHM binding to DcR3. The method, then: The ability of antibodies to block human TL1A binding to its cognate receptors, the DR3 and DcR3 receptors, was measured using a competition sandwich ELISA. In addition, blocking of a human TL1A variant FHM (human TL1A Q167R) and the cynomolgus monkey (Macaca fascicularis) TL1A (MfTL1A) protein binding to the human DR3 or DcR3 receptors was measured in the same manner. Constant amounts of biotinylated human TL1A or FHM (both expressed with a 6-His tag in CHO cells) or biotinylated MfTL1A (expressed in CHO cells) were separately titrated with varying amounts of antibodies. The antibody-protein complexes were incubated in solution (1 hr, 25° C.) and then transferred to microtiter plates coated with human DR3 (hDR3) or human DcR3 (hDcR3) expressed as human IgG1 Fc fusion proteins. After one hour at 25° C. the wells were washed, and bound human or monkey TL1A was detected with streptavidin conjugated with horseradish peroxidase (HRP). Wells were developed with a TMB solution to produce a colorimetric reaction and quenched with aqueous sulfuric acid before reading absorbance at 450 nm on a Perkin-Elmer Victor X5 plate reader. A sigmoidal dose-response curve was fit to the data using the Prism™ data analysis package. […] Both fully human anti-hTL1A mAbs and comparator antibodies, i.e., control mAb1 (an anti-hTL1A antibody with heavy and light chain variable domains having the amino acid sequences corresponding to SEQ ID NOS:21 and 27, respectively, of US 2009/0280116) and control mAb3 (an anti-hTL1A antibody with heavy and light chain variable domains having the amino acid sequences corresponding to SEQ ID NOS:57 and 48, respectively, of US 2009/0280116), were included in the study. NB: No binding under the conditions tested; NT: Not tested. Concentrations of biotinylated soluble ligands: (1) 150 pM; (2) 500 pM; (3) 10 pM; and (4) 50 pM.
In general terms: ELISA stands for enzyme-linked immunosorbent assay.

B1: H4H1750P (antibody, human IgG4 S228P, V domains shown)
VH: QVQLVESGGGVVQPGRSLRLSCVASGFTFSNYGMHWVRQAPGKGLEWVAVISYDGNNDLYSDSVKGRFTISRDNAKNALSLQMTSLRAEDTAVYYCARDSTMTPYYYHGIDVWGQGTTVTVSA
VL: DIQMTQSPSSLSASVGDRVTITCRASQDIRNDLGWYQQKPGKAPKRLIYAASSLQSGVPSRFSGSGSGTDFTLTISSLQPEDFATYYCLQHNSYPPTFGQGTKVEIK
One may read the Kd as the free concentration of one partner at which half of the binding sites on the other are occupied at equilibrium, for simple one-to-one binding. As to B1, the t1/2 is at least 8.02 days in assay [1], 21 min in assay [2] and 11 min in assay [4]. The values for the Kd in assay [2], in assay [3] and in assay [4] were 8.6 nM, at most 0.0158 nM and 17.1 nM, respectively.

B2: H4H1818N (antibody, human IgG4 S228P, V domains shown)
VH: RLQLVESGGGLVKPGGSLKLSCAASGFTISDYYMSWIRQAPGKGLEWVSYIGGSGSTIYYADSVKGRFTISRDNAKNSLYLQMNSLRAEDTAVYYCAREDADSYYYYGMDVWGQGTTVTVSS
VL: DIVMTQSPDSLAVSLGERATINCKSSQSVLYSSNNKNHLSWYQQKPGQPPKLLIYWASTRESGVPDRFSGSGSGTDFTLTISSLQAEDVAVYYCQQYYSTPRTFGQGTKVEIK
notes: human IgG4(S108P) form of H2M1818N
For B2, in assay [5], the Kd is at most 0.61 pM and the t1/2 is at least 8.02 days. Moreover, in assay [6], the Kd was found to be 7.1 nM and the t1/2 stood at 12 min.

B3: H4H1805N (antibody, human IgG4 S228P, V domains shown)
VH: QVQLQQWGAGLLKPSETLSLTCAVYGGSFTGFYWSWIRQPPGKGLEWIGEINHRGNTNYNPSLKSRVTMSVDTSKNQFSLNMISVTAADTAMYFCASPFYDFWSGSDYWGQGTLVTVSS
VL: DIMLTQTPLTSPVTLGQPASISCKSSQSLVHSDGNTYLSWLQQRPGQPPRLLFYKISNRFSGVPDRFSGSGAGTDFTLKISRVEAEDVGVYYCMQATQFPLTFGGGTKVEIK
notes: human IgG4(S108P) form of H2M1805N
The term IC50 denotes the concentration at which inhibition is half-maximal. In the case of B3, in assay [7], the IC50 turned out to be 0.436 nM.

B4: H4H1681N (antibody, human IgG4 S228P, V domains shown)
VH: EVQLLESGGGLVQPGKSLRLSCAVSGFTFSTYGMNWVRQAPGKGLEWVSSISGTGRTTYHADSVQGRFTVSRDNSKNILYLQMNSLRADDTAVYFCTKERGDYYYGVFDYWGQGTLVTVSS
VL: DIQMTQSPSTLSASVGDRVTITCRASQTISSWLAWYQQTPEKAPKLLIYAASNLQSGVPSRFSGSGSGTEFTLTISSLQPDDFATYYCQQYHRSWTFGQGTKVEIT
In assay [7], B4 gave an IC50 of 0.09 nM.
